Results from patent publication US5536648, “Amplified DNA assay using a double stranded DNA binding protein” (Amrad Corporation Limited).

B1: HIV p24 c-d1 (figure: d2) PCR product with GCN4 site (primer d1 shown) (dsDNA)
DNA 1: AGCGGATGACTCATTTTTTTTTCCTTGTCTTATGTCCAGAA
DNA 2: TTCTGGACATAAGACAAGGAAAAAAAAATGAGTCATCCGCT
B2: HIV p24 c-d PCR product with GCN4 site (primer d shown) (dsDNA)
DNA 1: AAGTGACTCAAGTGACTCAATCCTTGTCTTATGTCCAGAA
DNA 2: TTCTGGACATAAGACAAGGATTGAGTCACTTGAGTCACTT

Experiments:
[1] = molecular target: T1, GST-GCN4 6.8 (full-length GCN4, 281 aa) (Saccharomyces cerevisiae, UniProt P03069 P03069:1-281); assay: microtitre plate capture; binds with 1 ug/ml carrier human DNA; oligo called d2 in results, d1 in methods; details: tags: N-terminal GST (Schistosoma japonicum), pGEX-2T, E. coli; chain copies: 2
[2] = molecular target: T1, GST-GCN4 6.8 (full-length GCN4, 281 aa); assay: microtitre plate capture, MTPBS-Tween, 20 C; binds with 1 ug/ml carrier human DNA; details: tags: N-terminal GST (Schistosoma japonicum), pGEX-2T, E. coli; chain copies: 2

T1 sequence (P03069 whole entry, one chain of several): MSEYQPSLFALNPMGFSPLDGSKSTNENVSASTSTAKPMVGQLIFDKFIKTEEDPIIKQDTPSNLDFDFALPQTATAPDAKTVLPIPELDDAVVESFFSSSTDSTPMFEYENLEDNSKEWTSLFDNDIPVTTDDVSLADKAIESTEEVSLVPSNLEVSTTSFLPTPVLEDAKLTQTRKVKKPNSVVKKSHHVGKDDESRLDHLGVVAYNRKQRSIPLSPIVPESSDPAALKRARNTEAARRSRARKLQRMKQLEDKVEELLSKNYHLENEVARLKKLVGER

Binder | binding result [1] | binding result [2]
B1 | binds | –
B2 | – | binds
